Test results published in publication PMC6392469 (Cellular signalling, 2018).
Non-standard residues stand in square brackets, D forms with d. No end group written: not given here. fluorescein = fluorescein-6-aminohexanoyl label; pY = N[C@@H](Cc1ccc(OP(=O)(O)O)cc1)C(=O)O; Ahx = NCCCCCC(=O)O

T1: C1-Ten SH2 domain (C1-Ten/Tensin2) (Homo sapiens, UniProt Q63HR2)
T1 sequence (Q63HR2 1120-1253): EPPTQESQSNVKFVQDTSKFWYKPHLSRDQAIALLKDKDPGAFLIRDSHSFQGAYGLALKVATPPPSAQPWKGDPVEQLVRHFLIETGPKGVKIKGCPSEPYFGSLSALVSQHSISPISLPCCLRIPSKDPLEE

T2: C1-Ten SH2 domain (C1-Ten/Tensin2) (Homo sapiens, UniProt Q63HR2, K1142Q/K1155Q/K1157Q)
T2 sequence (Q63HR2 1120-1253 K1142Q/K1155Q/K1157Q): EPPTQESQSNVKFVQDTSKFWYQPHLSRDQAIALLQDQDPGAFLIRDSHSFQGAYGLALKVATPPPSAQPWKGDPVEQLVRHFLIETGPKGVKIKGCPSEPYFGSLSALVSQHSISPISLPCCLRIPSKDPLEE

T3: C1-Ten/Tensin2 SH2 domain K1142Q/K1155Q/K1157Q (UniProt Q63HR2 1120-1253, K1142Q | K1155Q | K1157Q)
T3 sequence (looked up): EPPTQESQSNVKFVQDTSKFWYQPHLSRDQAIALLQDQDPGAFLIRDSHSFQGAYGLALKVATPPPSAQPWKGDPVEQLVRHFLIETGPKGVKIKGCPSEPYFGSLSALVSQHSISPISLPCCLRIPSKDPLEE

T4: C1-Ten/Tensin2 SH2 domain, wild type (UniProt Q63HR2 1120-1253)
T4 sequence (looked up): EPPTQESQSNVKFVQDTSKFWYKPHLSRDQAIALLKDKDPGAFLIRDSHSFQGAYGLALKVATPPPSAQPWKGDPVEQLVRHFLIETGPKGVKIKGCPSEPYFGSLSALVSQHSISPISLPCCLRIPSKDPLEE

T5: C1-Ten/Tensin2 SH2 domain R1165A (UniProt Q63HR2 1120-1253, R1165A)
T5 sequence (looked up): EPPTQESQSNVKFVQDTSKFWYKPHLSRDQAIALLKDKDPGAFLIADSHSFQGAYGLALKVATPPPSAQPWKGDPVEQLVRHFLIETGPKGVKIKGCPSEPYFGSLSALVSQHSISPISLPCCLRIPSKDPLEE


Experiments:
[1] = target: T1, C1-Ten SH2 domain (C1-Ten/Tensin2); experiment: equilibrium SPR, L1 chip with lipid vesicles; assay type: binding
[2] = target: T2, C1-Ten SH2 domain (C1-Ten/Tensin2); experiment: equilibrium SPR, L1 chip with lipid vesicles; assay type: binding
[3] = target: T3, C1-Ten/Tensin2 SH2 domain …; experiment: fluorescence polarisation
[4] = target: T4, C1-Ten/Tensin2 SH2 domain, wild type; experiment: fluorescence polarisation
[5] = target: T5, C1-Ten/Tensin2 SH2 domain R1165A; experiment: fluorescence polarisation

Molecule	Kd [1] [nM]	Kd [2] [nM]	Kd [3] [nM]	Kd [4] [nM]	Kd [5] [nM]
CCCCCCCCCCCCCCCC(=O)OC[C@H](COP(=O)(O)O[C@H]1[C@H](O)[C@@H](OP(=O)(O)O)[C@H](OP(=O)(O)O)[C@@H](OP(=O)(O)O)[C@H]1O)OC(=O)CCCCCCCCCCCCCCC [PtdIns(3,4,5)P3]	260 ± 40	1260 ± 128			
{fluorescein-Ahx}-NE[pY]DNV [F-Ahx-NEpYDNV, fluorescein-6-aminohexanoyl-labeled pY-containing peptide]			3600 ± 1400	2500 ± 1300	90900 ± 11400
